Experimental data as given in US20230212511A1.

Key:
[1] = target: mutant truncated (mt) TpoR, lacking the final five amino acids (human) (UniProt P40238); assay: cell-based or functional assay
[2] = target: full length human TpoR (wild type), expressed on transduced cells (human) (UniProt P40238); assay: cell-based or functional assay

enrichment of TpoR positive primary human T-cells (from 20% transduced) in the presence of Tpo (% TpoR positive) [1]: 77.9
enrichment of TpoR positive primary human T-cells (from 20% transduced) in the presence of Tpo (% TpoR positive) [2]: 87.5
Substance: recombinant human Tpo (Miltenyi Biotec) (from UniProt P40225 22-195) (ligand)
